According to patent US7314724B2, “Therapeutic applications of laminin and laminin-derived protein fragments” (University of Washington, priority 1996, dated 2008):
“Also recorded” adds a separate entry of the source.

Legend:
Aβ (1-40) = biological target: T1, Aβ (1-40) (Homo sapiens, UniProt P05067); test: Thioflavin T fluorometry, Aβ (1-40) amyloid fibril formation; type: biochemical; details: comparison of basement membrane components (FIG. 3), 25 μM Aβ (1-40), 100 nM, 1 hour to 1 week
T1 construct: 2 μg of Aβ (1-40)(Bachem Inc., Torrance, Calif. USA; Lot #WM365); purchased Bachem Inc., Torrance, Calif; Lot #WM365
Experimental: The effects of laminin on Aβ fibrillogenesis was also determined using the previously described method of Thioflavin T fluorometry (Naiki et al, Lab. Invest. 65:104-110, 1991; Levine III, Protein Sci. 2:404-410, 1993; Levine III, Int. J. Exp. Clin. Invest. 2:1-6, 1995; Naiki and Nakakuki, Lab. Invest. 74:374-383, 1996). In this assay, Thioflavin T binds specifically to fibrillar amyloid and this binding produces a fluorescence enhancement at 480 nm that is directly proportional to the amount of amyloid fibrils formed (Naiki et al, Lab. Invest. 65:104-110, 1991; Levine III, Protein Sci. 2:404-410, 1993; Levine III, Int. J. Exp. Clin. Invest. 2:1-6, 1995; Naiki and Nakakuki, Lab. Invest. 74:374-383, 1996). In a first study, the effects of EHS laminin on Aβ (1-40) fibrillogenesis was assessed. For this study, 25 μM of freshly solubilized Aβ (1-40)(Bachem Inc., Torrance, Calif., USA; Lot #WM365) was incubated in microcentrifuge tubes at 37° C. for 1 week (in triplicate), either alone, or in the presence of 100 nM EHS laminin (Sigma Chemical Company, St. Louis, Mo., USA) in 100 mM Tris, 50 mM NaCl, pH 7.0 (TBS). 100 nM of laminin utilized for these studies represented a Aβ:laminin molar ratio of 250:1. 50 μl aliquots were then taken from each tube for analysis at 1 hr, 1 day, 3 days, and 1 week. In a second set of studies, the effects of laminin on Aβ (1 -40) fibril formation was directly compared to other basement membrane components including fibronectin, type IV collagen and perlecan. For these studies, 25 μM of freshly solubilized Aβ (1-40) was incubated in microcentrifuge tubes for 1 week (in triplicate) either alone, or in the presence of 100 nM of EHS perlecan (isolated as previously described)(Castillo et al, J. Biochem. 120:433-444, 1996), fibronectin (Sigma Chemical Company, St. Louis, Mo., USA) or type IV collagen (Sigma Chemical Company, St. Louis, Mo., USA). 50 ul aliquots were then taken for analysis at 1 hour, 1 day, 3 days and 1 week. In a third set of studies, 25 μM of freshly solubilized Aβ (1-40) was incubated in microcentrifuge tubes for 1 week (in triplicate) either alone, or in the presence of increasing concentrations of laminin (i.e. 5 nM, 15 nM, 40 nM and 100 nM). 50 μl aliquots were taken for analysis at 1 hour, 1 day, 3 days and 1 week.
For each determination described above, following each incubation period, Aβ peptides +/− laminin, perlecan, fibronectin or type IV collagen, were added to 1.2 ml of 100 μM Thioflavin T (Sigma Chemical Co., St. Louis, Mo.) in 50 mM phosphate buffer (pH 6.0). Fluorescence emission at 480 nm was measured on a Turner instrument-model 450 fluorometer at an excitation wavelength of 450 nm. For each determination, the fluorometer was calibrated by zeroing in the presence of the Thioflavin T reagent alone, and by seting the 50 ng/ml riboflavin (Sigma Chemical Co., St. Louis, Mo.) in the Thioflavin T reagent to 1800 fluorescence units. All fluorescence determinations were based on these references and any background fluorescence given off by laminin, perlecan, type IV collagen, or fibronectin alone in the presence of the Thioflavin T reagent was always subtracted from all pertinent readings.

biotinylated Aβ (1-40) = biological target: T2, biotinylated Aβ (1-40) (Homo sapiens, UniProt P05067); test: Aβ ligand blot of undigested and V8-, trypsin- or elastase-digested EHS laminin; type: binding; details: 2 μM biotinylated Aβ (1-40), SDS-PAGE under non-reducing conditions
T2 construct: Aβ (1-40) was biotinylated according to the manufacturer's protocol (Pierce, Rockford, Ill.)
Experimental: For these experiments, Aβ (1-40) was biotinylated according to the manufacturer's protocol (Pierce, Rockford, Ill.). For the ligand studies, intact EHS laminin was left undigested, or digested with V8 or trypsin (Sigma Chemical Company, St. Louis, Mo., USA). More specifically, 2 μg of trypsin or V8 protease in 2 μl of 50 MM Tris-HCl buffer (pH 8.0) were added to 50 μl of laminin (50 μg)(in the same buffer) and incubated overnight at 37° C. The next day, 10 μl of protease-digested laminin (or undigested laminin) was mixed with 10 μl of 2× sodium dodecyl sulfate polyacrylamide gel electrophoresis (SDS-PAGE) sample buffer, and heated for 5 minutes in a boiling water bath. SDS-PAGE was performed according to the method of Laemmli (Laemmli, U.K. Nature 227:680-685, 1970), or according to the method of Schägger and Jagow (Schägger and Jagow, Anal. Biochem. 166:368-379, 1987) using a Mini-Protean II electrophoresis system (Biorad) with precast 4-15% Tris-Glycine or 10-20% tricine polyacrylamide gels, respectively, and under non-reducing conditions. Electrophoresis occurred at 200V for 45 minutes along with pre-stained molecular weight standards. After SDS-PAGE (10-20% tricine or 4-15% Tris-Glycine gels) was performed as described above, the separated laminin and its fragments (total protein of 10 μg/lane) were transferred to polyvinylidine difluoride membrane (PVDF) using a Mini transblot electrophoresis transfer cell (Biorad, Hercules, Calif., U.S.A.). Electrotransfer was performed at 100V for 2 hours. Following transfer, membranes were rinsed with methanol and dried. The fragment(s) of laminin involved in binding to Aβ were then detected by using biotinylated-Aβ (1-40), as described above. Blots were probed for 2 hours with 2 μM biotinylated Aβ (1-40) in TTBS. The membranes were then rinsed three times (10 seconds each) with TTBS, probed for 30 minutes with strepavidin alkaline phosphatase conjugate (Vectastain), rinsed again (as described above), and followed by the addition of an alkaline phosphatase substrate solution (Vectastain). Following color development, the reaction was stopped by flushing the membranes with double distilled water. In the next set of studies, we determined whether small fragment(s) of laminin generated by elastase digestion would bind to Aβ. […] For these experiments, Aβ (1-40) was biotinylated according to the manufacturer's protocol (Pierce, Rockford, Ill.). For the ligand studies, intact EHS laminin was left undigested, or digested with elastase (Sigma Chemical Company, St. Louis, Mo., USA). For elastase digestion, 2 μg of elastase in 8 μl of 50 mM Tris-HCl buffer (pH 8.0) was added to 50 μl of laminin (50 μg)(in the same buffer) and incubated for 1.5 hours or 2.5 hours at 37° C. In addition, as a control, 2 μg of elastase in 50 μl of 50 mM Tris-HCl buffer (pH 8.0) was incubated for 2.5 hours at 37° C. Following the appropriate incubation times as described above, 10 μl of each of the above incubations were mixed with 10 μl of 2× SDS-PAGE electrophoresis sample buffer, and heated for 5 minutes in a boiling water bath. SDS-PAGE was performed according to the method of Laemmli (Laemmli, Nature 227:680-685, 1970) using a Mini-Protean II electrophoresis system with precast 4-15% Tris-Glycine polyacrylamide gels, and under non-reducing conditions. Electrophoresis occurred at 200V for 45 minutes along with pre-stained molecular weight standards (Biorad). After SDS-PAGE was performed as described above, the separated laminin fragments were transferred to PVDF using a Mini transblot electrophoresis transfer cell (Millipore, Bedford, Mass., U.S.A.). Electrotransfer was performed at 100V for 2 hours. Following transfer, membranes were rinsed with methanol, dried and cut into two equal parts which were used for Aβ ligand blotting, or Coomassie blue staining and subsequent amino acid sequencing. The fragment(s) of laminin involved in binding to Aβ were then detected by using biotinylated-Aβ (1-40), as described above. […]

T1 sequence (P05067 672-711 limits assumed): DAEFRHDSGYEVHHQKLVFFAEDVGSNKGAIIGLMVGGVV
T2 sequence (P05067 672-711 limits assumed): as above

Molecule: perlecan: EHS perlecan, basement membrane component used as comparison [reference compound]
- effect on Aβ (1-40) fibrillogenesis, in words (Aβ (1-40)): not effective inhibitors
- effect on Aβ (1-40) fibrillogenesis, in words (Aβ (1-40); listed as Perlecan): significantly accelerate Aβ (1-40) amyloid formation at 1 day and 3 days

Molecule: fibronectin [reference compound]
- effect on Aβ (1-40) fibrillogenesis, in words (Aβ (1-40)): not effective inhibitors; also recorded: only showed significant inhibition of Aβ (1-40) fibrillogenesis at 1 week

B1: ˜55 kilodalton (kDa) laminin fragment: ˜55 kDa Aβ-binding fragment from V8 or elastase digested mouse EHS laminin; within globular repeats of the laminin A chain (E3 region) (protein)
chain: HREHGELPPEPPTLPQPELCAVDTAPGYVAGAHQFGLSQNSHLVLPLNQSDVRKRLQVQLSIRTFASSGLIYYVAHQNQMDYATLQLQEGRLHFMFDLGKGRTKVSHPALLSDGKWHTVKTEYIKRKAFMTVDGQESPSVTVVGNATTLDVERKLYLGGLPSHYRARNIGTITHSIPACIGEIMVNGQQLDKDRPLSASAVDRCYVVAQEGTFFEGSGYAALVKEGYKVRLDLNITLEFRTTSKNGVLLGISSAKVDAIGLEIVDGKVLFHVNNGAGRITATYQPRAARALCDGKWHTLQAHKSKHRIVLTVDGNSVRAESPHTHSTSADTNDPIYVGGYPAHIKQNCLSSRASFRGCVRNLRLSRGSQVQSLDLSRAFDLQGVFPHSCPGPEP
- interaction with biotinylated Aβ (1-40) on ligand blot, in words (biotinylated Aβ (1-40)): interact with biotinylated Aβ (1-40)
- interaction with biotinylated Aβ (1-40) on ligand blot, in words (biotinylated Aβ (1-40); listed as 55 kDa laminin fragment): positive Aβ binding interaction
- interaction with biotinylated Aβ (1-40) on ligand blot, in words (biotinylated Aβ (1-40); listed as ˜55 kDa): interacted with Aβ (1-40)
- interaction with biotinylated Aβ (1-40) on ligand blot, in words (biotinylated Aβ (1-40); listed as ˜55 kilodalton fragment): interacts with Aβ
- interaction with biotinylated Aβ (1-40) on ligand blot, in words (biotinylated Aβ (1-40); listed as ˜55 kilodalton laminin fragment): binds biotinylated Aβ
